Source: US20150344570A1 (published 2015)

T1: FcγRIIa H (human, UniProt P12318 34-217)
T1 construct: extracellular domain; also called FcγRIIa type H; 2aH; not shown: His tag at the C terminus
T1 sequence (looked up): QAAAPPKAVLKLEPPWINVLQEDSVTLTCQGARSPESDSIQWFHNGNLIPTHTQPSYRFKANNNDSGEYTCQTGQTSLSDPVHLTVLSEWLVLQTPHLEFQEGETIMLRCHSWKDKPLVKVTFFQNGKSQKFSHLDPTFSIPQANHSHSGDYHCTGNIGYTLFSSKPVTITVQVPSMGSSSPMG

T2: FcγRIIb (human, UniProt P31994 43-217)
T2 construct: extracellular domain; also called 2b; not shown: His tag at the C terminus
T2 sequence (looked up): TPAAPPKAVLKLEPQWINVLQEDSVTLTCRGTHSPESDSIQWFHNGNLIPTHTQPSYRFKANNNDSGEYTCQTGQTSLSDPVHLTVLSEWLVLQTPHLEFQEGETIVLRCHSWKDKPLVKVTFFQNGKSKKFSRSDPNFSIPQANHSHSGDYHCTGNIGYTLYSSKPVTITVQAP

B1: GpH7-A5/GpH7-B3 variant I336_10E/GpL16-k0 (antibody, human IgG1, kappa)
heavy 1: not shown
heavy 2: not shown
light: DIVMTQSPLSLPVTPGEPASISCQASESLVHSNRNTYLHWYLQKPGQSPQLLIYKVSNRFSGVPDRFSGSGSGTDFTLKISRVEAEDVGVYYCSQNTHVPPTFGQGTKVEIERTVAAPSVFIFPPSDEQLKSGTASVVCLLNNFYPREAKVQWKVDNALQSGNSQESVTEQDSKDSTYSLSSTLTLSKADYEKHKVYACEVTHQGLSSPVTKSFNRGEC
notes: Heterodimerized IgG1; mutation in the GpH7-B3 chain only; also called He Ab
B2: GpH7-A5/GpH7-B3 variant I336_18N/GpL16-k0 (antibody, human IgG1, kappa)
heavy 1: not shown
heavy 2: not shown
light: B1 light
notes: as for B1
B3: GpH7-A5/GpH7-B3 variant K326_12R/GpL16-k0 (antibody, human IgG1, kappa)
heavy 1: not shown
heavy 2: not shown
light: B1 light
notes: as for B1
B4: GpH7-A5/GpH7-B3 variant Q295_05P/GpL16-k0 (antibody, human IgG1, kappa)
heavy 1: not shown
heavy 2: not shown
light: B1 light
notes: as for B1
B5: GpH7-A5/GpH7-B3 variant Q295_07I/GpL16-k0 (antibody, human IgG1, kappa)
heavy 1: not shown
heavy 2: not shown
light: B1 light
notes: as for B1
B6: GpH7-A5/GpH7-B3 variant S324_02A/GpL16-k0 (antibody, human IgG1, kappa)
heavy 1: not shown
heavy 2: not shown
light: B1 light
notes: as for B1
B7: GpH7-A5/GpH7-B3 variant S324_04F/GpL16-k0 (antibody, human IgG1, kappa)
heavy 1: not shown
heavy 2: not shown
light: B1 light
notes: as for B1
B8: GpH7-A5/GpH7-B3 variant S324_09D/GpL16-k0 (antibody, human IgG1, kappa)
heavy 1: not shown
heavy 2: not shown
light: B1 light
notes: as for B1
B9: GpH7-A5/GpH7-B3 variant S324_10E/GpL16-k0 (antibody, human IgG1, kappa)
heavy 1: not shown
heavy 2: not shown
light: B1 light
notes: as for B1
B10: GpH7-A5/GpH7-B3 variant S324_15Y/GpL16-k0 (antibody, human IgG1, kappa)
heavy 1: not shown
heavy 2: not shown
light: B1 light
notes: as for B1
B11: GpH7-A5/GpH7-B3 variant S324_16H/GpL16-k0 (antibody, human IgG1, kappa)
heavy 1: not shown
heavy 2: not shown
light: B1 light
notes: as for B1
B12: GpH7-A5/GpH7-B3 variant S324_20W/GpL16-k0 (antibody, human IgG1, kappa)
heavy 1: not shown
heavy 2: not shown
light: B1 light
notes: as for B1
B13: GpH7-A5/GpH7-B3 variant T335_01G/GpL16-k0 (antibody, human IgG1, kappa)
heavy 1: not shown
heavy 2: not shown
light: B1 light
notes: as for B1
B14: GpH7-A5/GpH7-B3 variant T335_02A/GpL16-k0 (antibody, human IgG1, kappa)
heavy 1: not shown
heavy 2: not shown
light: B1 light
notes: as for B1
B15: GpH7-A5/GpH7-B3 variant T335_05P/GpL16-k0 (antibody, human IgG1, kappa)
heavy 1: not shown
heavy 2: not shown
light: B1 light
notes: as for B1
B16: GpH7-A5/GpH7-B3 variant T335_06M/GpL16-k0 (antibody, human IgG1, kappa)
heavy 1: not shown
heavy 2: not shown
light: B1 light
notes: as for B1
B17: GpH7-A5/GpH7-B3 variant Y296_04F/GpL16-k0 (antibody, human IgG1, kappa)
heavy 1: not shown
heavy 2: not shown
light: B1 light
notes: as for B1
B18: GpH7-A5/GpH7-B3 variant Y296_09D/GpL16-k0 (antibody, human IgG1, kappa)
heavy 1: not shown
heavy 2: not shown
light: B1 light
notes: as for B1
B19: GpH7-A5/GpH7-B3 variant Y296_16H/GpL16-k0 (antibody, human IgG1, kappa)
heavy 1: not shown
heavy 2: not shown
light: B1 light
notes: as for B1
B20: GpH7-A5/GpH7-B3 variant Y296_18N/GpL16-k0 (antibody, human IgG1, kappa)
heavy 1: not shown
heavy 2: not shown
light: B1 light
notes: as for B1
B21: GpH7-A5/GpH7-B3 variant Y300_06M/GpL16-k0 (antibody, human IgG1, kappa)
heavy 1: not shown
heavy 2: not shown
light: B1 light
notes: as for B1
B22: GpH7-A5/GpH7-B3 variant Y300_07I/GpL16-k0 (antibody, human IgG1, kappa)
heavy 1: not shown
heavy 2: not shown
light: B1 light
notes: as for B1
B23: GpH7-A5/GpH7-B3 variant Y300_08L/GpL16-k0 (antibody, human IgG1, kappa)
heavy 1: not shown
heavy 2: not shown
light: B1 light
notes: as for B1

Each binder was assayed against T1, FcγRIIa H (assay: SPR (Biacore), antibody captured, FcγR as analyte; binding relative to GpH7-A5/GpH7-B3/GpL16-k0 = 100).
Method: (§1) The heterodimerized antibodies He Abs in which one of the H chains was introduced with an alteration were assayed for their binding activities to each activating FcγR and inhibitory FcγR according to the method described in Example 4. […] The activating FcγRs in FIGS. 26, 27, 28, and 29 are FcγRIa, FcγRIIa (R), FcγRIIa (H), and FcγRIIIa, respectively.
(§2) Analysis of interaction between objective antibody and the FcγR was carried out using Biacore T100 (GE Healthcare). HBS-EP+ (GE Healthcare) was used as the running buffer, and the measurement temperature was set to 25° C. Chips produced by immobilizing the antigen peptide by the amine coupling method to a Series S Sencor Chip CM5 (GE Healthcare), or alternatively, chips produced by allowing preliminarily biotinylated antigen peptides to interact with and immobilize onto a Series S Sensor Chip SA (certified) (GE Healthcare) were used. Antibodies of interest were captured onto an antigen peptide-immobilized chip, and allowed to interact to each FcγR diluted with running buffer. To regenerate and repeatedly use the chip, the antibodies captured on the chip were washed off by reacting 10 mM glycine-HCl, pH 1.5.

Compared with B1, B2 is higher in He/Con_2aH: 102 % of control for the first, 103 % of control for the second.

First: B3
Second: B4
The He/Con_2aH of the first is lower: 101 % of control for the first, 103 % of control for the second.

B5 and B6 are the same in He/Con_2aH: 102 % of control for the first, 102 % of control for the second.

First: B7
Second: B8
The He/Con_2aH of the first is lower: 101 % of control for the first, 106 % of control for the second.

First: B9
Second: B10
The He/Con_2aH of the first is higher: 103 % of control for the first, 102 % of control for the second.

First: B11
Second: B12
The He/Con_2aH of the first is lower: 102 % of control for the first, 103 % of control for the second.

Going from B13 to B14, the He/Con_2aH falls from 103 % of control to 101 % of control.

Going from B15 to B16, the He/Con_2aH falls from 108 % of control to 103 % of control.

Compared with B17, B18 is higher in He/Con_2aH: 100 % of control for the first, 104 % of control for the second.

B19 and B20 are the same in He/Con_2aH: 104 % of control for the first, 104 % of control for the second.

Compared with B21, B22 is higher in He/Con_2aH: 105 % of control for the first, 108 % of control for the second.

B23 was tested, and the He/Con_2aH was 108 % of control.

What follows are binders tested against T2, FcγRIIb in the same assay as above.
Method: as §1, §2

Compared with B1, B2 is higher in He/Con_2b: 89.8 % of control for the first, 97.6 % of control for the second.

Compared with B3, B4 is lower in He/Con_2b: 89.2 % of control for the first, 67.5 % of control for the second.

First: B5
Second: B6
The He/Con_2b of the first is higher: 84.3 % of control for the first, 78.3 % of control for the second.

Compared with B7, B8 is lower in He/Con_2b: 89.1 % of control for the first, 85.8 % of control for the second.

Going from B9 to B10, the He/Con_2b rises from 77.4 % of control to 88.2 % of control.

First: B11
Second: B12
The He/Con_2b of the first is lower: 83.5 % of control for the first, 87.5 % of control for the second.

Compared with B13, B14 is lower in He/Con_2b: 96.7 % of control for the first, 94 % of control for the second.

First: B15
Second: B16
The He/Con_2b of the first is higher: 99.9 % of control for the first, 99.4 % of control for the second.

Going from B17 to B18, the He/Con_2b falls from 99.2 % of control to 98.9 % of control.

Going from B19 to B20, the He/Con_2b falls from 92.2 % of control to 91.5 % of control.

Compared with B21, B22 is lower in He/Con_2b: 84.3 % of control for the first, 74.5 % of control for the second.

B23 was tested, and the He/Con_2b was 73.6 % of control.
